Reference: patent US5856148A, “Materials and methods for biosynthesis of serine and serine-related products” (priority 1991, dated 1999)

Test system: 3-phosphoglycerate dehydrogenase (PGD)
Test: assay of PGD activity (relative catalytic activity)
Format: biochemical, E. coli
Excerpt: While not critical to the invention, the assay of PGD activity is generally necessary in order to establish the degree of serine sensitivity of the altered enzyme. As is well known in the art, enzyme activity is a function of the total number of enzyme molecules and the catalytic activity of each molecule. Thus, in comparing the catalytic activity of PGD feedback variants, steps must be taken to adequately control for the relative number of PGD molecules for samples in which relative catalytic activity is to be compared. There are a number of ways in which this may be accomplished. However, since it is difficult to adequately establish the level of gene expression in cells transformed with truncated serA genes (due to decreased viability), the most suitable way to compare PGD activity produced from various constructs and the wild type is to chromosomally integrate the altered serA gene containing standard regulatory elements in a single copy, followed by harvesting the transformants and determination of the relative catalytic activity as compared to PGD from wild type cells.
Any method suitable for the measurement of PGD activity may be employed. PGD activity may be measured through detection of either the forward or the reverse reaction by the method of John C. McKitrick and Lewis I. Pizer, J. Bacteriol., 141:235-245 (1980). […]

B1: WT: wild-type E. coli 3-phosphoglycerate dehydrogenase (serA), C-terminal sequence SEQ ID NO: 2 (protein, UniProt P0A9T0 2-410, looked up)
D-3-phosphoglycerate …: AKVSLEKDKIKFLLVEGVHQKALESLRAAGYTNIEFHKGALDDEQLKESIRDAHFIGLRSRTHLTEDVINAAEKLVAIGCFCIGTNQVDLDAAAKRGIPVFNAPFSNTRSVAELVIGELLLLLRGVPEANAKAHRGVWNKLAAGSFEARGKKLGIIGYGHIGTQLGILAESLGMYVYFYDIENKLPLGNATQVQHLSDLLNMSDVVSLHVPENPSTKNMMGAKEISLMKPGSLLINASRGTVVDIPALCDALASKHLAGAAIDVFPTEPATNSDPFTSPLCEFDNVLLTPHIGGSTQEAQENIGLEVAGKLIKYSDNGSTLSAVNFPEVSLPLHGGRRLMHIHENRPGVLTALNKIFAEQGVNIAAQYLQTSAQMGYVVIDIEADEDVAEKALQAMKAIPGTIRARLLY
Table 1, following chromosomal integration of the construct
  Units (relative catalytic activity): 0.05 Units
Table 1A, wildtype and mutated serA alleles
  Units: 0.05 Units
